Measurements published in paper PMC12990809.

Assays:
Experiment in all cases: pulldown
Conditions in all cases: 20 nM protein, 1.5 uM RNA pool; 20 mM HEPES pH 7.8, 70 mM KCl, 10 mM NaCl, 10% glycerol, 2 mM DTT, 0.1 ug/uL BSA; 30 min, 4 C
[1] = molecular target: T1, ENSXETG00000023721 (Xenopus tropicalis) (UniProt A0A803KLF2)
T1 sequence: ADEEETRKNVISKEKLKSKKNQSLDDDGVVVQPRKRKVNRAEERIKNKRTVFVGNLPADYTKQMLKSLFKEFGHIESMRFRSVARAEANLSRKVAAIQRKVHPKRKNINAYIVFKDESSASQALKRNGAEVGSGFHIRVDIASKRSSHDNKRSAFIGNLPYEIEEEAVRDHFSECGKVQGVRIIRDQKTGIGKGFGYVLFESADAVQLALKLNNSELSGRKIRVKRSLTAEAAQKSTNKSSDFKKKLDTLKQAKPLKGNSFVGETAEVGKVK

[2] = molecular target: T2, U2B'' (Arabidopsis thaliana) (UniProt O22922)
T2 sequence: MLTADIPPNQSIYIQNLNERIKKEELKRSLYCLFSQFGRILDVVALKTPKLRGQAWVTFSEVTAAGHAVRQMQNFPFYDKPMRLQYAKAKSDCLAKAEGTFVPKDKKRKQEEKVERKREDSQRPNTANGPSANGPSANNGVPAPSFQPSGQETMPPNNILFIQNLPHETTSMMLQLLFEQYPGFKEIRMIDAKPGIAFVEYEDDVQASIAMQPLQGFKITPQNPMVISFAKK

TRNAU1AP (Homo sapiens) = molecular target: T3, TRNAU1AP (Homo sapiens) (UniProt Q9NX07)
T3 sequence: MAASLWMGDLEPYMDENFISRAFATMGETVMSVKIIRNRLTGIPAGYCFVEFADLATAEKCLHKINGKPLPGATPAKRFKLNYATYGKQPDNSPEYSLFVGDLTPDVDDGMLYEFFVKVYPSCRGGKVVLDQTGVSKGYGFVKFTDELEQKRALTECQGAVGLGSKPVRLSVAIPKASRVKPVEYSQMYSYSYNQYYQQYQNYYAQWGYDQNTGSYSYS

PUF60 (Homo sapiens) = molecular target: T4, PUF60 (Homo sapiens) (UniProt Q9UHX1)
T4 sequence: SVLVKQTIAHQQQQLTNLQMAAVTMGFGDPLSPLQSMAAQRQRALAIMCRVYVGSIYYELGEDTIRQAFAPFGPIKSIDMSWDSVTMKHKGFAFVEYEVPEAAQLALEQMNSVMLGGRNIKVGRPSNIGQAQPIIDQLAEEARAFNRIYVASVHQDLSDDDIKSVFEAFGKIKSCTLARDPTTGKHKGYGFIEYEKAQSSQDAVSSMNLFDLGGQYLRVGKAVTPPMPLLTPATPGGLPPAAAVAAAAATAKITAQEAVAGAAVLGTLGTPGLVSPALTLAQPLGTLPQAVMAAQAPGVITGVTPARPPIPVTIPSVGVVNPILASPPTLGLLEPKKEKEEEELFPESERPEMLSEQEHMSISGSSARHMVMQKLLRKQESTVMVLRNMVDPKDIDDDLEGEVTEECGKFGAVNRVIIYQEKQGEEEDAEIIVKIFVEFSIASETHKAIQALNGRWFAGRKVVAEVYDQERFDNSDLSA

RBM45 (Homo sapiens) = molecular target: T5, RBM45 (Homo sapiens) (UniProt Q8IUH3)
T5 sequence: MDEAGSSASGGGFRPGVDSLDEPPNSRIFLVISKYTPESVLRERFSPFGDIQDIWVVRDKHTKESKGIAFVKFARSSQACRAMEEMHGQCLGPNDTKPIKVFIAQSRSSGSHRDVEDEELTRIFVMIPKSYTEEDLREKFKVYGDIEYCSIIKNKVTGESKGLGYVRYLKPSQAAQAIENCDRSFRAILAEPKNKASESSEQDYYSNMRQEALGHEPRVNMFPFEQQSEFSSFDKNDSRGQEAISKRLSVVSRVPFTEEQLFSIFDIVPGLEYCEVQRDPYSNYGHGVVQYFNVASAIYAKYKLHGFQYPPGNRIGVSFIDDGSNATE

[3] = molecular target: T6, tdp-1 (Caenorhabditis elegans) (UniProt D0VWM8)
T6 sequence: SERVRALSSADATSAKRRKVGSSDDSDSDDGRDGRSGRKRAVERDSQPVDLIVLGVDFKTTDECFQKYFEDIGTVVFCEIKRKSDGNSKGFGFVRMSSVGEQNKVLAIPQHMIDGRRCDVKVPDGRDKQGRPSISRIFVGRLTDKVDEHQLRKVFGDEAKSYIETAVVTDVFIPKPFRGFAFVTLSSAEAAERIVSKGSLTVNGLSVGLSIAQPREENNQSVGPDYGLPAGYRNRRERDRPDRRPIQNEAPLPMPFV

ESRP1 (Homo sapiens) = molecular target: T7, ESRP1 (Homo sapiens) (UniProt Q6NXG1)
T7 sequence: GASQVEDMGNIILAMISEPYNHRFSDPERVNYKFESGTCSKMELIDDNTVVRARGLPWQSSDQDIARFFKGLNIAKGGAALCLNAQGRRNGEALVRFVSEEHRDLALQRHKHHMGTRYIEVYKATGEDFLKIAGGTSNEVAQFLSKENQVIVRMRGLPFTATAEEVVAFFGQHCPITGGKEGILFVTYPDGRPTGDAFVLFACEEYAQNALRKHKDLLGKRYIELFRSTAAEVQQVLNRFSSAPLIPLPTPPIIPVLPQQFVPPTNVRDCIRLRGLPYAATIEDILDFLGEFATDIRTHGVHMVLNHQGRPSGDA

[4] = molecular target: T8, PK21151.1 (Cannabis sativa) (UniProt A0A7J6F7E6)
T8 sequence: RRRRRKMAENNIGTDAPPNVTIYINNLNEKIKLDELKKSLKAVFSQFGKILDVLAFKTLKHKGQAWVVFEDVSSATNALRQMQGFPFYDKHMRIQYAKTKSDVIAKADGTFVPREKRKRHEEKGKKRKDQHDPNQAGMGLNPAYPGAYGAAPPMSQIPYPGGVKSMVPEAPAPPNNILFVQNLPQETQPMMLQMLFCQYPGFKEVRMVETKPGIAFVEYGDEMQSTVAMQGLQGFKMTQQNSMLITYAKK

[5] = molecular target: T9, cpb-2 (Caenorhabditis elegans) (UniProt Q18317)
T9 sequence: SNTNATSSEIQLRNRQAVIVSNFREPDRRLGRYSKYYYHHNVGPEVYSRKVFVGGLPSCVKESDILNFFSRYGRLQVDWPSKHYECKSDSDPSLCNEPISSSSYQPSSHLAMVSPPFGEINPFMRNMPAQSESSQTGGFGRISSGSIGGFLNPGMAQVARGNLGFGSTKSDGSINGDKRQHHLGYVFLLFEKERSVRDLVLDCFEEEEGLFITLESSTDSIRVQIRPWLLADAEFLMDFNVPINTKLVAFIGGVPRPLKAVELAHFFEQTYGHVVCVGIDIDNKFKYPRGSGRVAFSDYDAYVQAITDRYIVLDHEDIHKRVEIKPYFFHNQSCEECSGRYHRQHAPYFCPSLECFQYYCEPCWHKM

GAACG [RNAcompete motif RNCMPT00828]
binding signal (z-score (mean of top ten 7-mers)) [1]: 10.8

UUGCACA [RNAcompete motif RNCMPT01660]
binding signal (z-score (mean of top ten 7-mers)) [2]: 14.2

AAUUU [RNAcompete motif RNCMPT00813]
binding signal (z-score (mean of top ten 7-mers)) (TRNAU1AP (Homo sapiens)): 7.72

UUUUUUU [RNAcompete motif RNCMPT00820]
binding signal (z-score (mean of top ten 7-mers)) (PUF60 (Homo sapiens)): 12

GACAGA [RNAcompete motif RNCMPT00805]
binding signal (z-score (mean of top ten 7-mers)) (RBM45 (Homo sapiens)): 12.2

GAGAGA [RNAcompete motif RNCMPT00816]
binding signal (z-score (mean of top ten 7-mers)) [3]: 11.6

GGAUGGGG [RNAcompete motif RNCMPT00808]
binding signal (z-score (mean of top ten 7-mers)) (ESRP1 (Homo sapiens)): 6.61

UUGCACA [RNAcompete motif RNCMPT00830]
binding signal (z-score (mean of top ten 7-mers)) [4]: 12.4

UUUNUA [RNAcompete motif RNCMPT00794]
binding signal (z-score (mean of top ten 7-mers)) [5]: 14.9
